Experimental data taken from patent publication JP2011512120A (dated 2011).

Columns and labels:
[1] = molecular target: 酵母由来組換えhGM−CSF(Leukine Berlex) (human); assay: SPR (Biacore), antibody captured through protein G on the chip, rhGM-CSF injected
[2] = molecular target: 大腸菌由来組換えhGM−CSF(Peprotech) (human); assay: as above

Binder | Kd [1] [nM] | Kd [2] [nM]
EV1018 (antibody, V domains shown) VH: QVQLVESGGGMVQPGMPLRLSCVASGFTFSSYGMHWVRQAPGKGLEWVALTYHHGNRKFYADSVRGRFTISRDNSNNTLYLQMTSLRAEDTAVYFCARESMGAINDNWGQGTLVIVSS VL: QSALTQETSVSGTVGQKVTLSCIGNNNNIGSHAVGWYQQISRGAPKMVLFGRSPPSGVPDRFSGSKSGTTASLIISGLQPEDEADYYCSTWDSSLSAVVFGGGTKLTVLR | 0.23 | 0.15
EV1007 (antibody, V domains shown) VH: QVHLVQSGSELKKPGASVKVSCKASGYSFSRYGIKWVRQAPGQGLEWMGWINTRSGVPAYAQGFTGRFVFSLDTSVDTAFLEISSLKTEDTGIYYCATRPPRFYDKTEYWEDGFDVWGRGTLVTVSS VL: QSVLTQPPSASGTPGQSVNISCSGSSSNIGNSYVYWYQQLPGTAPKLLIYRNNRRPSGVPDRFSGSKSDTSASLAISGLRSEDEADYYCATWDDSLSGRLFGGGTKLTVL | 1.2 | 0.93

Other lines, results leading:

Kd [1] [nM] | Kd [2] [nM] | Binder
0.36 | 0.15 | EV1019 (antibody, V domains shown) VH: QAQLVESGGGVVKPGGSLRLSCISSKFTFSSHAMHWVRQAPGKGLEWVAVIWHDGSKKYYADSVKGRFSVSRDNSKNTLFLQMDSLRAEDTAVYFCGKEWVGGTCDSWGQGTLVIVSS VL: QPALTQEASVSGTVGQTVTLLCSGNSSNIGSYAVGWYQQISRGAPKIVVFGKSPASGIPDRFSGSKSGTTASLLVSGLQPEDEADYYCSTWDSRLSAVLFGGGTKLTVLR
0.23 | 0.095 | EV1003 (antibody, V domains shown) VH: LVQLVQSEAEVKKPGASVRISCRTSGYIFPTFALHWVRQAPGQSLEWVGSINTASGKTKFSTKFQDRLTLSSNTSATTVYMDLSGLTLDDTALYYCARDRFQNIMATILDVWGQGTLVTVSS VL: DIVLTQSPGTLSLSPGERVTVSCRASHRVSSNYLAWYQQRPGQSPRLLIFGASNRATGVPDRFSGSGSGTDFALTISRLEPDDFAVYYCQQYASSPVTFGGGTKLEIK
